From article doi:10.1101/2023.05.08.539884
Like-named read-outs stand apart in the source and are kept apart here.

Assays:
UBR4_(4730-5183) (human) [1] = molecular target: UBR4_(4730-5183) (human) (UniProt Q5T4S7); experiment: ITC
UBR4_(4730-5183) (human) [2] = molecular target: UBR4_(4730-5183) (human) (UniProt Q5T4S7); experiment: ITC; remark: listed apart in the source

Chain of UBR4_(4730-5183) (human) (Q5T4S7 4730-5183): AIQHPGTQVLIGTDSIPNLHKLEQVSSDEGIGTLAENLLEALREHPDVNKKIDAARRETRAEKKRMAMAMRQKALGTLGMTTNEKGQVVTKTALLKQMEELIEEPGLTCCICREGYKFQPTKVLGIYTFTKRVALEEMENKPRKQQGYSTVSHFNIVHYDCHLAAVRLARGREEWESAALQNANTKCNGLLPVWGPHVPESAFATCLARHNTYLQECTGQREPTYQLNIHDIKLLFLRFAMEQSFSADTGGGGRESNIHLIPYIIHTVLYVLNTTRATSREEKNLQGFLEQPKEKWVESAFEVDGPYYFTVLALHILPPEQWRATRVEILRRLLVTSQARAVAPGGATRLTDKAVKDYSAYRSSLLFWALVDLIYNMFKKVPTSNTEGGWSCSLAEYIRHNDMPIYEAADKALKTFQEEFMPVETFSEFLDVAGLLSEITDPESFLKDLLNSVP
Chain of UBE2A (P49459 whole entry): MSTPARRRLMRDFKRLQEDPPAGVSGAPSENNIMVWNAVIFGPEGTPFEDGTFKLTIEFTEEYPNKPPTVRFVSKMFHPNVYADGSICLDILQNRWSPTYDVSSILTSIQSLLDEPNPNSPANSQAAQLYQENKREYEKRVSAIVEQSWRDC

- stoichiometry N (UBR4_(4730-5183) (human) [1]): 1
- dH (UBR4_(4730-5183) (human) [2]): -7.37 kcal/mol
- stoichiometry N (UBR4_(4730-5183) (human) [2]): 0.904
Substance: UBE2A (from UniProt P49459 1-152) (enzyme)
